assay: soluble on expression in E. coli; label from the status in PepcDB or PDB records

Sequence	soluble on expression in E. coli
MDLPKAYDPKSVEPKWAEKWAKNPFVANPKSGKPPFVIFMPPPNVTGSLHMGHALDNSLQDALIRYKRMRGFEAVWLPGTDHAGIATQVVVERLLLKEGKTRHDLGREKFLERVWQWKEESGGTILKQLKRLGASADWSREAFTMDEKRSRAVRYAFSRYYHEGLAYRAPRLVNWCPRCETTLSDLEVETEPTPGKLYTLRYEVEGGGFIEIATVRPETVFADQAIAVHPEDERYRHLLGKRARIPLTEVWIPILADPAVEKDFGTGALKVTPAHDPLDYEIGERHGLKPVSVINLEGRMEGERVPEALRGLDRFEARRKAVELFREAGHLVKEEDYTIALATCSRCGTPIEYAIFPQWWLRMRPLAEEVLKGLRRGDIAFVPERWKKVNMDWLENVKDWNISRQLWWGHQIPAWYCEDCQAVNVPRPERYLEDPTSCEACGSPRLKRDEDVFDTWFSSALWPLSTLGWPEETEDLKAFYPGDVLVTGYDILFLWVSRMEVSGYHFMGERPFKTVLLHGLVLDEKGQKMSKSKGNVIDPLEMVERYGADALRFALIYLATGGQDIRLDLRWLEMARNFANKLYNAARFVLLSREGFQAKEDTPTLADRFMRSRLSRGVEEITALYEALDLAQAAREVYELVWSEFCDWYLEAAKPALKAGNAHTLRTLEEVLAVLLKLLHPMMPFLTSELYQALTGKEELALEAWPEPGGRDEEAERAFEALKQAVTAVRALKAEAGLPPAQEVRVYLEGETAPVEENLEVFRFLSRADLLPERPAKALVKAMPRVTARMPLEGLLDVEEWRRRQEKRLKELLALAERSQRKLASPGFREKAPKEVVEAEEARLKENLEQAERIREALSQIG	soluble
MDLSTGVPVSIQLKTIVQQGNEQKDFFFDLEGQLVKMGDTLYIRYKEELLEDTEPTPVTIKIEPDGHVQLIRAGELRMRLRFGYQEKLDTSYRTPYGLLQISTFTHNLRVSLKDQPMSGKILVDYDLYSQTERIGEYHLELEFTA	not soluble
MDMNFDLYMNGVVEQARNEIESAGYEQLTTAEDVDKVLKQDGTTLVMINSVCGCAGGIARPAASHALHYDVLPDRLVTVFAGQDKEATQRAREYFEGYAPSSPSFALVKDGKITEMIERHQIEGHDVMNVINQLQTLFNKYCEERLEHHHHHH	soluble
MDNLVWDGIPDIRTLDQTIRKHAHPLNLIVCLPDNQIPDFQTAQDASDSECRLKHRLDQATQCLQFDSINLIEHILPDVRFWLVPPSRTRRLHEHFHHISWQTEAIPQTESKSDKPWFALPQTSERKKPEHVLVIGAGIAGASTAHALASHGISVTVLEARKAAQAASGNRQGLLYAKISPHDTGQTELLLAGYGYTKRLLGHILPDSDTWGGNGIIHLNYSRTEQQRNHELGLQKHHNHLYRSITSAEAEKIAGIPLNTPYAEPLCGLYWQHGVWLNPPAFVRTLLSHPLIELYENTTLTGISHDGEKWIASTPNGTFTATHIIYCTGAHSPCLPETNLAALPLRQIRGQTGLTPSTPFSEQLRCAVSGESYISPSWHGLHCYGASFIPNSSNTGWNEAEEASNRQALAHLNPALAESLFAANPNPQKHQGHAAIRCDSPDHLPVVGALGDIAAMRQTYAKLALDKNYRIDTTCPYLPNAYTNTAHGTRGLATAPICAAAVAAEILGLPHLFSQRLRHALHPNRTVIRAIVRRQNLIPLEHHHHHH	soluble
MDNPSKEIDLLLQSSYDMTILTKQGEYNVDSMLSRAHHVASRISSMYKYEKLLQDMQDLTVNGNRRKLILNDLQRENKQIMALQDENRQLRETTQEYLATMRNILDSHAEIEGSIEMGQMNSDIDDADIDRIIFEMANTDQEARLKKKALEMELMMDDLEKMRKEEYQELQLAVQRNKNYKELFKLACFSNQSANSILNSAMKIISEGDGFDDDEAQENEDLNETIIHKKQ	not soluble
MDPFGKYIKAVSARAADKEILKKAQDGGIVSAAYIYGLESGLLDGVIIADKEDGFAAAPKVATTREEILNAAGTKYTVCPNLSVVKSAVREYGCDKLGFVGTPCQVRSIRKAIKYPVGYRHVPDKIALIMGIFCMENFPYNGMKAIVEEHCGIKMDDVVKTDIGKGKFWVYSKWGDVKTIPLKDTHPYEQGSCHVCMDYTAELADISTGSVGSPDGWSTIFVRTAKGEEYLNKMVEAGALETKEIDAVKPGLGLVEKLALTKKEKNGKEVEHRKEIGLPVPYLEHHHHHH	not soluble
MDPKKADIIRLEALPQDLLGGIVAKVGATTAEDFHNCILVCKELGASANDKHVFKTLNLALLVKKPLSGTQTPSYYENMS	soluble
MDPLFLLLPYISSVGKEGKFQSVKQMVMDEDYPGCSRLLQCKQGLDSLHHVADEKEVNDQKYHKYNLEKTLEWLKKKVQRTVNALKKGNISVGGGVKSSTFVRVKHEDASEEDYLRYAHGLISEYISEDLSKDLLKHLELPEISSPKEAEPPSKKRKLSDKPVEAGEDYTKFNSADFARKPPKKMTAAQKSLAKADKTGMKSLASFFSPKVKQEKN	not soluble
MDPMYLLVDVGNTHSVFSITEDGKTFRRWRLSTGVFQTEDELFSHLHPLLGDAMREIKGIGVASVVPTQNTVIERFSQKYFHISPIWVKAKNGCVKWNVKNPSEVGADRVANVVAFVKEYGKNGIIIDMGTATTVDLVVNGSYEGGAILPGFFMMVHSLFRGTAKLPLVEVKPADFVVGKDTEENIRLGVVNGSVYALEGIIGRIKEVYGDLPVVLTGGQSKIVKDMIKHEIFDEDLTIKGVYHFCFGD	soluble
MDPRGILKAFPKRQKIHADASSKVLAKIPRREEGEEAEEWLSSLRAHVVRTGIGRARAELFEKQIVQHGGQLCPAQGPGVTHIVVDEGMDYERALRLLRLPQLPPGAQLVKSAWLSLCLQERRLVDVAGFSIFIPSRYLDHPQPSKAEQDASIPPGTHEALLQTALSPPPPPTRPVSPPQKAKEAPNTQAQPISDDEASDGEETQVSAADLEALISGHYPTSLEGDCEPSPAPAVLDKWVCAQPSSQKATNHNLHITEKLEVLAKAYSVQGDKWRALGYAKAINALKSFHKPVTSYQEACSIPGIGKRMAEKIIEILESGHLRKLDHISESVPVLELFSNIWGAGTKTAQMWYQQGFRSLEDIRSQASLTTQQAIGLKHYSDFLERMPREEATEIEQTVQKAAQAFNSGLLCVACGSYRRGKATCGDVDVLITHPDGRSHRGIFSRLLDSLRQEGFLTDDLVSQEENGQQQKYLGVCRLPGPGRRHRRLDIIVVPYSEFACALLYFTGSAHFNRSMRALAKTKGMSLSEHALSTAVVRNTHGCKVGPGRVLPTPTEKDVFRLLGLPYREPAERDW	soluble
MDPTQISHLALDIGGTLIKLVYFSANGDYSEESRNGCSVVKGRLCFAKFETRKIDDCLEFIRFNILHHSEVTIQVYSNRMAKATGGGAFKFADLFKEKLGILFDKEDEMCSLVGGVNFLLKTVPREAFTYLDGQKKFVEIDHNDLYPYLLVNIGSGVSMIKVDGDGKYERISGTSLGGGTFLGLGKLLTKCKSFDELLELSHHGNNRVIDMLVGDIYGGTDYSKIGLSSTAIASSFGKAISDGKELEDYQPEDVARSLLRMISNNIGQIAYLNALRFGLKRIFFGGFFIRGLEYTMDTISVAVHFWSRGEAKAMFLRHEGFLGALGAFTSYNDQSHNDLKPHHHTVQRAILNCSGHNFRHIPVTSNLNESETIECSINLV	soluble
MDQALLDGGYRCYTGEKIDVYFNTAICQHSGNCVRGNGKLFNLKRKPWIMPDEVDVATVVKVIDTCPSGALKYRHK	soluble
MDQLSEKQIWYYHIIPEYQTEKSFYACVRRSGMIKFDTFYFPHMLSARETQRSIKFGDGVWSGCLYDPDIYTDGKISIQGVGGVLFPREAEIGGCVCLCLIFLIKLGLSTKYMKSHVSFDVSCDL	not soluble
MDQNPNYNFGYGQAYGSGTDHTSDSTNNYNWASQWSQPESAASLATHTFPQYVSQQQQQQQQQAQQQAQNTYAAMNPISTFMQQQQRAQTFPQKKYGQQGGAPKPSAIRNNNFGAFGGGHALSQEWVQPMSQNQMGGPQGNRFFNNQKGGPFNQNKPNWRQNKPKGPAAPKKFDSTGKSPAMLLHELFKDVSEEYTEVEGVPKKYCCTLKVNGRTFQMESVNKKAAKQKCSELVVRDLRPDVHVTPFEEGVAAKAAAPVKKEIDAASGNGQNNKRNLLQADAISNQPTPKKVSAVKKAKLQLTPVESALSLLDLMQKIIAESAEKYSPVFEASEVPKDPEIPEVEVKKEEVDTNGENVANEKKSGWRKNETMHNVTLKFVEQNKQYTKMGPSRGVLKDMVIREALRDLFNVSHADITTVARRHASNRLGHDTTILQCLNTICSILNCTLTIECEPAEDRPLGIGRAYFMAKCTIIDHNENDLKFEVKSSSLASKAMAKDWVAQETLKNYFAIDPSSCVKTDAVSSQGPCALLHAMLNKQTKQKCKIAYEFKDNVPPVAGQATTTFYCECVIDETDRYIGVGRSKKLAKSEAAMQALKKLFKIDYDPAGNYPLALTSRAMTESKVSPLCRHIAEFCKREYHQMTEYYQIPPSNLFAAFLLVNAQEEKRVLAMGSSIQYIVEPDTLSGANGTSLLHLDAIILARRAMLKAFIHELSTVDSECSIFEKKEEGKAALKPNLRLVLYSNYSPPCIHAVDDAATKKLSYVTPTNLTCVPDDVLTYEQIKETKSLRVHCTADKLFKWNTLGIQGALLSNVLHPIFIDNIFFGSEAPVSDESLSYALQGRLGPNENEREIIVESMPVQMRMHMGISHLWHRGVDSVETLDYNTGRTSKGSPSRVCKAEIFEAYRKLNGVDQAVVNYAKAKEMASEYQYEKKVFYEKLEAAGLGKWQTKPAELVDSFTLAAFD	not soluble
MDRGTVFTFSPKGDIIELPVGATALDFAFMVHTQVGCKCVGAKVNGRMVTIDHKLKSGDKVEIITSKNSKGPSLEHHHHHH	not soluble
MDRLQLYESKKLRRETPLSPLLRIFAGQSVHNHRPMYFRDVAGLEDLKTYLRRTAQTRQIAHAQLFAGEEGGGAFPLALAYARYLNCQMPTDTDACGHCPSCVKYDALAHPDLFFVYPVVNASSSPAPSDDYIRQWREMLGSESYFTPADWLEYIKAGNSQPIIYSKEAEAVEQKLSFRIYEASYRVVMIWQPERMNEAMANKLLKLIEEPPEHTLFFMISSEPDKVLGTIRSRTQLINVRLLHEIEIVEALSRNNQGNTADIIRIAHLAEGNYRRAMDLYRGEWADRDNFVLMGRMMGSIIKGDPSKMRPVADELAALGRVSQIGFLTYCLRLFRELYISRVGVAKLNYLSPEEESFVDMLSGGITGQNIRPVMEEVELAIRHIRQNGNGRMIFFDLLLRLTAALAPALRAKGLK	not soluble
MDRRFPPFSPFFNHGRRFFDDVDFDRHMIRPYWADQTMLTGHRVGDAIDVVNNDQEYNVSVDVSQFEPEELKVNIVDNQLIIEGKHNEKTDKYGQVERHFVRKYNLPTGVRPEQIKSELSNNGVLTVKYEKNQEQQPKSIPITIVPKRN	not soluble
MDRSAEFRKWKAQCLSKADLSRKGSVDEDVVELVQFLNMRDQFFTTSSCAGRILLLDRGINGFEVQKQNCCWLLVTHKLCVKDDVIVALKKANGDATLKFEPFVLHVQCRQLQDAQILHSMAIDSGFRNSGITVGKRGKTMLVVRSTHGLEVPLSHKGKLMVTEEYIDFLLNVANQKMEENKKRIERFYNCLQHALERETMTNLHPKIKEKNNSSYIHKKKRNPEKTRAQCITKESDEELENDDDDDLGINVTIFPEDY	not soluble
MDRSERLIQLISEEGIDAFLIMNIENSARASSVYFSGFTGSFSIILISENTRLLITDSRYTVQAKQETDFEVREVKGGDFIDVLKKTVNDLKIKTIALEEERVSLSLFRRISSAFGDRKFIGIDDEVKQMRMVKDEGEIEKIKQAIEISERAFLETVQQIRAGMTEKEIAALLEYTMRKEGAEGVAFDTIVASGCRSALPHGKASDKVVERGDVIVIDFGATYENYCADITRVVSIGEPSDEVKEVHSIVLEAQERALKIAKAGVTGKLLDSVAREFIREKGYGEFFGHSLGHGIGLEVHEGPAISFRNDSPLPENVVFTVEPGIYLEGKFGIRIEEDVVLKEQGCEILTTLPRSIFVV	soluble

From the DeepSol protein solubility set
